Data: patent publication US12454527B2, “Conjugate monomethyl auristatin E to obtain a composition for treatment of prostate cancer” (priority 2019, dated 2025)
“And” between values parts separate entries of the source, which are not always exact repeats. Identical values can stand only once. “Also recorded” adds a separate entry of the source. Like-named read-outs stand apart in the source and are kept apart here. Starred links: 1 amine or outer side, 2 acyl side, 3 side chain; linkers in the order of their positions; H or OH if unused. Non-standard residues stand in square brackets, D forms with d. Residues, ends and D or L forms follow the SMILES beside them. ξ: configuration not given here. *: point of attachment. GluureaLys(ε-3-ClBenzyl) = O=C(O)CC[C@H](NC(=O)N[C@@H](CCCCN(Cc1cccc(Cl)c1)*)C(=O)O)C(=O)O; Dolaproine = CO[C@@H]([C@@H]1CCCN1)[C@@H](C)C(=O)O; Dil = CC[C@H](C)[C@H](NC)[C@@H](CC(=O)O)OC; X1 = O=C(CCCc1cn(CCCN[*:1])nn1)[*:2]; PABC = O=C(OCc1ccc(N[*:1])cc1)[*:2]; X2 = C[C@@H](N*)[C@@H](O)c1ccccc1; Cit = NC(=O)NCCC[C@H](N)C(=O)O; Suc = O=C(CCC(=O)[*:2])[*:1]; NMeV = CN[C@H](C(=O)O)C(C)C; ξV = CC(C)C(N)C(=O)O; Ahx = NCCCCCC(=O)O

Key:
[1] = Acute toxicity study, single intravenous administration, mice; type: in vivo
Excerpt: Acute toxicity study of Conjugate (I) product on mice and rats.
• 1. Conjugate (I). • 2. Solubilizer Pluronic F127—in the amount, five-fold greater than the conjugate amount by weight. • 3. Diluent Haemodes infusion solution. • 4. Dimethyl sulfoxide—in the amount of 5% of the prepared volume.
The experiment took white outbred male mice aged about 2 months with body weight of 19-21,g, and also white outbred mature male rats aged about 2 months with body weight 190-210 g.
Acute toxicity study was performed within the intravenous administration. Before the start of the experiment to determine an acute toxicity, the animals were deprived of food and water (mice were deprived for 2 hours, rats—for 10-12 hours), and then weighed. Then each animal received the intravenous drug injection according to the study design, in a volume not exceeding the acceptable single injection volume: 0.5 mL for mice, 2 mL for rats, and fractionally if necessary. The control group of animals received Pluronic solution in Haemodes in the proportion used fort dose preparation of 78 mg/kg for mice and 38 mg/kg for rats. The duration of observation for laboratory animals was 14 days. During this period, visible signs of intoxication were assessed (see Table 9).

[2] = Pharmacokinetics in plasma of rabbits after a single injection; type: in vivo; conditions: male, Soviet Chinchilla, rabbit, plasma; for level at 0.5 h: 0.50 hour
Excerpt: The pharmacokinetics study for the Conjugate (I) product in plasma of rabbits and rats after a single injection.
The leporids and rodents are the standard targets for preclinical studies of potential drug products as well as determining the pharmacokinetic parameters. The rabbits and rats are recommended as test systems to study pharmacokinetic properties of pharmaceutical products by the regulatory documents (FIG. 7, FIG. 8).
[…] The pharmacokinetic data, determined from this number of test animals, are sufficient to obtain the primary quantitative characteristics of test product distribution and elimination and the calculation of descriptive statistics parameters.
• 1. Conjugate (1) • 2. Solubilizer Pluronic F127—in the amount, five-fold greater than the conjugate amount by weight. • 3, Diluent—Haemodes infusion solution. • Dimethyl sulfoxide—in the amount of 5% of the prepared volume. • Rabbit experiment (see Tables 5, 6), • Rat experiment (see Tables 7, 8).

[3] = rabbits N=6, read-out: Concentration in blood plasma, Geometr. mean
[4] = rabbits N=6, read-out: Concentration in blood plasma, Mean value
[5] = rabbits N=6, read-out: Concentration in blood plasma, Median

For `CC[C@H](C)[C@@H]([C@@H](CC(=O)N1CCC[C@H]1[C@H](OC)[C@@H](C)C(=O)N[C@H](C)[C@@H](O)c1ccccc1)OC)N(C)C(=O)[C@@H](NC(=O)[C@H](C(C)C)N(C)C(=O)OCc1ccc(NC(=O)[C@H](CCCNC(N)=O)NC(=O)C(NC(=O)CCCc2cn(CCCNC(=O)[C@H](Cc3ccc(O)cc3)NC(=O)[C@H](Cc3ccccc3)NC(=O)CCC(=O)NCCCCCC(=O)N(CCCC[C@H](NC(=O)N[C@@H](CCC(=O)O)C(=O)O)C(=O)O)Cc3cccc(Cl)c3)nn2)C(C)C)cc1)C(C)C` (stereo partly drawn) [Conjugate (I)] ({GluureaLys(ε-3-ClBenzyl)-Ahx-Suc}-FY[X1][ξV][Cit][PABC][NMeV]V[Dil][Dolaproine]-X2), the “Body weight dynamics, M ± SD” value ([1]; male mice, 3 mg/kg, Day 5) was −13.2 ± 5.1 % of initial body weight, the “Body weight dynamics (individual animals)” value ([1]; male mice, 3 mg/kg, Day 5, listed as test drug, 3 mg/kg) was −6.3 % of initial body weight and −19.0 % of initial body weight and −15.4 % of initial body weight and −22.1 % of initial body weight and −11.0 % of initial body weight and −11.4 % of initial body weight and −13.3 % of initial body weight and −13.8 % of initial body weight and −5.6 % of initial body weight and −13.9 % of initial body weight and the “Body weight dynamics, M ± SD” value ([1]; male mice, 3 mg/kg, Day 10) was 9.9 ± 11.7 % of initial body weight. For the same compound, the “Body weight dynamics (individual animals)” value ([1]; male mice, 3 mg/kg, Day 10, listed as test drug, 3 mg/kg) was 0.0 % of initial body weight and 16.8 % of initial body weight and 18.8 % of initial body weight and −9.1 % of initial body weight and 18.6 % of initial body weight and 16.3 % of initial body weight and 13.8 % of initial body weight and 17.9 % of initial body weight and 18.9 % of initial body weight and −9.9 % of initial body weight, the “Body weight dynamics, M ± SD” value ([1]; male mice, 3 mg/kg, Day 14) was 29.1 ± 9.1 % of initial body weight and the “Body weight dynamics (individual animals)” value ([1]; male mice, 3 mg/kg, Day 14, listed as test drug, 3 mg/kg) was 36.1 % of initial body weight and 30.5 % of initial body weight and 32.7 % of initial body weight and 13.9 % of initial body weight and 34.3 % of initial body weight and 35.1 % of initial body weight and 25.7 % of initial body weight and 35.7 % of initial body weight and 35.2 % of initial body weight and 11.9 % of initial body weight. For the same compound, the “Body weight dynamics, M ± SD” value ([1]; male mice, 5 mg/kg, Day 5) was −20.9 ± 7.6 % of initial body weight, the “Body weight dynamics (individual animals)” value ([1]; male mice, 5 mg/kg, Day 5, listed as test drug, 5 mg/kg) was −27.1 % of initial body weight and −14.3 % of initial body weight and −28.2 % of initial body weight and −23.8 % of initial body weight and −26.1 % of initial body weight and −6.0 % of initial body weight and −22.4 % of initial body weight and −12.0 % of initial body weight and −21.0 % of initial body weight and −27.8 % of initial body weight and the “Body weight dynamics, M ± SD” value ([1]; male mice, 5 mg/kg, Day 10) was −4.3 ± 13.0 % of initial body weight. For the same compound, the “Body weight dynamics (individual animals)” value ([1]; male mice, 5 mg/kg, Day 10, listed as test drug, 5 mg/kg) was −6.7 % of initial body weight and −12.9 % of initial body weight and 1.0 % of initial body weight and −20.8 % of initial body weight and 13.9 % of initial body weight and −18.0 % of initial body weight and 16.8 % of initial body weight and −5.2 % of initial body weight and −6.8 % of initial body weight, the “Body weight dynamics, M ± SD” value ([1]; male mice, 5 mg/kg, Day 14) was 20.5 ± 10.5 % of initial body weight and the “Body weight effect (summary)” value ([1]; male mice, all test doses) was “decreased growth rate or decreased body weight regarding the initial one”. It also gave a Fatality ([1]; male mice, i.v. 3 mg/kg) of 0, a Fatality ([1]; male mice, i.v. 5 mg/kg) of 1 and a Fatality ([1]; male mice, i.v. 6 mg/kg) of 3. The Fatality ([1]; male mice, i.v. 7 mg/kg) was 10, the MTD at 14 days ([1]; male, white outbred, mouse, in vivo, iv, mice, single i.v., read-out: Maximum tolerated dose) was 3 mg/kg and the “Toxic effect (summary)” value ([1]; mice, acute i.v.) was “renal damage, decreased motor activity, dose-dependent hindlimb paresis”. For the same compound, the Signs of intoxication ([1]; mice, single i.v. 2 mg/kg) was “No signs of intoxication”, the Signs of intoxication ([1]; mice, single i.v. 3 mg/kg) was 3-4 days - general health deterioration, the occurring hindlimb paresis and the Signs of intoxication ([1]; mice, single i.v. 7 mg/kg) was 3-4 days - general health deterioration, the occurring hindlimb paresis, decrease movement activity. For the same compound, the Signs of intoxication ([1]; mice, single i.v. 8 mg/kg) was 5 days - all animals had disheveled fur, gastrointestinal bleeding, hindlimb paresis. One animal, the Signs of intoxication ([1]; mice, single i.v. 9 mg/kg, listed as test drug, 9 mg/kg) was “The animals demonstrated a shortness of breath right after administration, the next day - a shortness; also recorded: Days 3 (3), 4 (5), 5 (1), 6 (1)” and the Signs of intoxication ([1]; mice, single i.v. 30 mg/kg) was “All animals were observed with a shortness of breath right after administration, developing”. The Signs of intoxication ([1]; mice, single i.v. 45 mg/kg, listed as test drug, 45 mg/kg) was “All animals were observed with a shortness of breath right after administration, developing; also recorded: died during 12 hours”, the Signs of intoxication ([1]; mice, single i.v. 60 mg/kg) was “All animals were observed with a shortness of breath right after administration, developing” and the LD50 at 14 days ([1]; white outbred, mouse, in vivo, iv, male mice, single i.v., read-out: LD50 (median lethal dose)) was 6.3 mg/kg. It also gave an AUC0-t ([2]; intravenous, 0.81 mg/kg, rabbits N=6, read-out: AUC0-t, Geometr. mean) of 30200 ng·h/mL, an AUC0-t ([2]; intravenous, 0.81 mg/kg, rabbits N=6, read-out: AUC0-t, Mean value) of 30700 ng·h/mL and an AUC0-t ([2]; intravenous, 0.81 mg/kg, rabbits N=6, read-out: AUC0-t, Median) of 30200 ng·h/mL. The AUC(0-inf) ([2]; intravenous, 0.81 mg/kg, rabbits N=6, read-out: AUC0-∞, Geometr. mean) was 34700 ng·h/mL, the AUC(0-inf) ([2]; intravenous, 0.81 mg/kg, rabbits N=6, read-out: AUC0-∞, Mean value) was 35100 ng·h/mL and the AUC(0-inf) ([2]; intravenous, 0.81 mg/kg, rabbits N=6, read-out: AUC0-∞, Median) was 36100 ng·h/mL. It also gave an MRT last ([2]; intravenous, 0.81 mg/kg, rabbits N=6, read-out: MRT0-t, Geometr. mean) of 3.43 h, an MRT last ([2]; intravenous, 0.81 mg/kg, rabbits N=6, read-out: MRT0-t, Mean value) of 3.44 h and an MRT last ([2]; intravenous, 0.81 mg/kg, rabbits N=6, read-out: MRT0-t, Median) of 3.38 h. The half-life ([2]; intravenous, 0.81 mg/kg, rabbits N=6, read-out: T1/2, Geometr. mean (converted)) was 260 min, the half-life ([2]; intravenous, 0.81 mg/kg, rabbits N=6, read-out: T1/2, Mean value (converted)) was 275 min and the half-life ([2]; intravenous, 0.81 mg/kg, rabbits N=6, read-out: T1/2, Median (converted)) was 275 min. For the same compound, the Vd ([2]; intravenous, 0.81 mg/kg, rabbits N=6, read-out: Vd, Geometr. mean) was 0.146 L/kg, the Vd ([2]; intravenous, 0.81 mg/kg, rabbits N=6, read-out: Vd, Mean value) was 0.158 L/kg and the Vd ([2]; intravenous, 0.81 mg/kg, rabbits N=6, read-out: Vd, Median) was 0.144 L/kg. For the same compound, the AUC0-t ([2]; intravenous, 0.81 mg/kg, rabbits, individual animals, read-out: AUC0-t) was 31400 ng·h/mL, the AUC(0-inf) ([2]; intravenous, 0.81 mg/kg, rabbits, individual animals, read-out: AUC0-∞) was 35300 ng·h/mL and the C0 ([2]; intravenous, 0.81 mg/kg, rabbits, individual animals, read-out: C0) was 10700 ng/mL. For the same compound, the MRT last ([2]; intravenous, 0.81 mg/kg, rabbits, individual animals, read-out: MRT0-t) was 3.12 h, the level at 0.08 h [2, 3] was 10300 ng/mL and the level at 0.08 h [2, 4] was 10500 ng/mL. It also gave a level at 0.08 h [2, 5] of 9600 ng/mL, a level at 0.25 h [2, 3] of 9410 ng/mL and a level at 0.25 h [2, 4] of 9670 ng/mL. The level at 0.25 h [2, 5] was 9840 ng/mL, the level at 0.5 h [2, 3] was 7410 ng/mL and the level at 0.5 h [2, 4] was 7580 ng/mL. For the same compound, the level at 0.5 h [2, 5] was 7100 ng/mL, the level at 1 h [2, 3] was 6040 ng/mL and the level at 1 h [2, 4] was 6160 ng/mL.
